For two molecules, absorbance and IC50 results are on record in patent publication EP1040351B1 (Merck & Co., Inc., dated 2007).

The target in assay [1] is anti-Myc mAb-HRP conjugate (Invitrogen). As to the kind of experiment: competition ELISA: anti-Myc mAb-HRP on coated Myc peptide, 10x diluted c-ART-b sample as competitor. (ELISA stands for enzyme-linked immunosorbent assay.)
The target in assay [2] is T1, human melanocortin-3 receptor (human, UniProt P41968 1-323).
T1 construct: whole, on cells; Membrane preparations of stably expressing cells; also called hMC3R; MC3R
T1 sequence (P41968 whole entry): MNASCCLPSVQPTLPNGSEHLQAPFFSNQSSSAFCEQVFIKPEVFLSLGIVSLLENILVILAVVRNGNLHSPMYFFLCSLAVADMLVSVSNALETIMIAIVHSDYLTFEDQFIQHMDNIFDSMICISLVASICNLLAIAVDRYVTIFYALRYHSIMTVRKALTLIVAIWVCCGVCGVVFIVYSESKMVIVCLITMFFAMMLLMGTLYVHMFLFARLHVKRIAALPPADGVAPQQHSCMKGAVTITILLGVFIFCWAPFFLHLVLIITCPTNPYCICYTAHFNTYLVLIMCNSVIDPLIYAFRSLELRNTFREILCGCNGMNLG
Kind of assay: displacement of 0.2 nM 125I-NDP-α-MSH from membranes of cells stably expressing human MC3R, filtration.

The target in assay [3] is T2, human melanocortin-4 receptor (human, UniProt P32245 1-332).
T2 construct: whole, on cells; Membrane preparations of stably expressing cells; also called hMC4R; MC4R
T2 sequence (P32245 whole entry): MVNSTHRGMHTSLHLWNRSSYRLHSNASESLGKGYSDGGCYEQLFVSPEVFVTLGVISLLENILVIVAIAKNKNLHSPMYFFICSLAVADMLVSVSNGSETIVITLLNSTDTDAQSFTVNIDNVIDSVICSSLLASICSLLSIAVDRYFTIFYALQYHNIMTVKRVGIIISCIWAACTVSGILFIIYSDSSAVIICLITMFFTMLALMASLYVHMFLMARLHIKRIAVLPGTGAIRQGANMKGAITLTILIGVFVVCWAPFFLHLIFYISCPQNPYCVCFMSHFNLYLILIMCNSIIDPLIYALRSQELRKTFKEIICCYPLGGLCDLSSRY
As to the kind of experiment: displacement of 0.2 nM 125I-NDP-α-MSH from membranes of cells stably expressing human MC4R, filtration.

“c-ART-b (from UniProt O00253 1-26; O00253 76-132) (ligand)”: the absorbance in assay [1] amounted to 0.079. In addition, the IC50 – broadly, the concentration at which inhibition is half-maximal – in assay [2] stood at 1.9 nM; in assay [3], 1.4 nM.

B1: full-length human ART protein (ligand, UniProt O00253 21-132, looked up, not shown: small tags and cut ends)
chain: AQMGLAPMEGIRRPDQALLPELPGLGLRAPLKKTTAEQAEEDLLQEAQALAEVLDLQDREPRSSRRCVRLHESCLGQQVPCCDPCATCYCRFFNAFCYCRKLGTAMNPCSRT
notes: range 1-132; Recombinant ART as described by Fong et al. 1997 (ART cDNA in pcDNA3.1-Myc-His-A); also called full length ART; full-length ART protein
Regarding B1, the IC50 in assay [2] was 1 nM; in assay [3] it was 0.5 nM.
